Sequences and labels used below:
B1: R4152 (peptide)
peptide: Ac-[Nva]CA[Tle]KH[NMeA][Phg][Trp(7-aza)]Y[NMePhe(4-F)][Sar]C-NH2
modifications: linker 2-13 via mXylylene
SMILES: CCC[C@H](NC(C)=O)C(=O)N[C@H]1CSCc2cccc(c2)CSC[C@@H](C(N)=O)NC(=O)CN(C)C(=O)[C@H](Cc2ccc(F)cc2)N(C)C(=O)[C@H](Cc2ccc(O)cc2)NC(=O)[C@H](Cc2c[nH]c3ncccc23)NC(=O)[C@H](c2ccccc2)NC(=O)[C@H](C)N(C)C(=O)[C@H](Cc2c[nH]cn2)NC(=O)[C@H](CCCCN)NC(=O)[C@H](C(C)(C)C)NC(=O)[C@H](C)NC1=O
B2: R4149 (peptide)
peptide: Ac-[Nva]CY[Tle]KH[NMeA][Chg][Trp(7-aza)]Y[NMePhe(4-F)][Sar]C-NH2
modifications: linker 2-13 via mXylylene
SMILES: CCC[C@H](NC(C)=O)C(=O)N[C@H]1CSCc2cccc(c2)CSC[C@@H](C(N)=O)NC(=O)CN(C)C(=O)[C@H](Cc2ccc(F)cc2)N(C)C(=O)[C@H](Cc2ccc(O)cc2)NC(=O)[C@H](Cc2c[nH]c3ncccc23)NC(=O)[C@H](C2CCCCC2)NC(=O)[C@H](C)N(C)C(=O)[C@H](Cc2c[nH]cn2)NC(=O)[C@H](CCCCN)NC(=O)[C@H](C(C)(C)C)NC(=O)[C@H](Cc2ccc(O)cc2)NC1=O
B3: R4153 (peptide)
peptide: Ac-[Nva]CY[Tle]KA[NMeA][dPhg][Trp(7-aza)]Y[NMePhe(4-F)][Sar]C-NH2
modifications: linker 2-13 via mXylylene
SMILES: CCC[C@H](NC(C)=O)C(=O)N[C@H]1CSCc2cccc(c2)CSC[C@@H](C(N)=O)NC(=O)CN(C)C(=O)[C@H](Cc2ccc(F)cc2)N(C)C(=O)[C@H](Cc2ccc(O)cc2)NC(=O)[C@H](Cc2c[nH]c3ncccc23)NC(=O)[C@@H](c2ccccc2)NC(=O)[C@H](C)N(C)C(=O)[C@H](C)NC(=O)[C@H](CCCCN)NC(=O)[C@H](C(C)(C)C)NC(=O)[C@H](Cc2ccc(O)cc2)NC1=O

*1 amine or outer side, *2 acyl side, *3 side chain or, on linkers, in order; H or OH if unused. Bridges are numbered along the chain shown (N, C = ends). [ ]: non-standard residue; d: D form. ξ: configuration not given here. DAPTZAC2 = (S)-3-(4-(2-acrylamidoethyl)-1H-1,2,3-triazol-1-yl)-2-aminopropanoic acid, C=CC(=O)NCCc1cn(C[C@H](N[*:1])C(=O)[*:2])nn1; m‑xylylene = m-xylylene thioether bridge between Cys; Trp(7-aza) = N[C@@H](Cc1c[nH]c2ncccc12)C(=O)O; NMePhe(4-F) = CN[C@@H](Cc1ccc(F)cc1)C(=O)O; mXylylene = c1cc(C[*:1])cc(C[*:2])c1; dPhg = N[C@@H](C(=O)O)c1ccccc1; Chg = N[C@H](C(=O)O)C1CCCCC1; Phg = N[C@H](C(=O)O)c1ccccc1; Tle = CC(C)(C)[C@H](N)C(=O)O; ξPhg = NC(C(=O)O)c1ccccc1; NMeA = CN[C@@H](C)C(=O)O; Nva = CCC[C@H](N)C(=O)O; Sar = CNCC(=O)O

The target of the test is GMPPNP-loaded H-Ras or GTP-loaded K-Ras. As to the kind of experiment: FP competition, displacement of probe R4007 from Ras.
Molecule Ac-[Nva]CY[Tle]K(4‑(dimethylamino)benzoyl‑2,3,5,6‑d4)H[NMeA][Phg][Trp(7-aza)]Y[NMePhe(4-F)][Sar]C-NH2 (linker 2-13 via mXylylene) [R4150] displayed an IC50 of 7.64 µM.
Next, B1: 28.3 µM; B2: 6.26 µM; {Alexa Fluor 594}-[Nva]CY[Nva][Phg][NMePhe(4-F)]TP[Trp(7-aza)]C[Trp(7-aza)]EE-NH2 (linker 2-10 via m‑xylylene) [R4154]: 37.4 µM.
Next, B3: 36.5 µM; Ac-[Nva]SY[Tle]A[DAPTZAC2][NMeA][ξPhg][Trp(7-aza)]Y[NMePhe(4-F)][Sar]S-NH2 (also: places Phg, 7-azaTrp, NMe-4-F-Phe, Sar at 9, 10, 12, 13) [R4151]: 12.2 µM.

What is called IC50 is the point on the concentration scale where inhibition reaches its midpoint. Read a high IC50 as a need for much substance.
